This is an account of results in publication PMC10229650 (Nature Communications, 2023).

The assay concerns the target T1, recombinant, soluble murine Jagged1 (mouse, UniProt Q9QXX0).
T1 construct: Jagged1, mouse, recombinant soluble form; also called recombinant mouse Jagged1
As to the kind of experiment: ELISA; plates coated with 500 ng/mL recombinant soluble murine Jagged1 in PBS; antibodies titrated 2000-15.63 ng/mL in PBSTM, 1.5 h at RT; detected with ALP-conjugated goat anti-murine Fc. The settings on record: both partners purified. In general terms: ELISA stands for enzyme-linked immunosorbent assay.

T1 sequence (Q9QXX0 34-1067): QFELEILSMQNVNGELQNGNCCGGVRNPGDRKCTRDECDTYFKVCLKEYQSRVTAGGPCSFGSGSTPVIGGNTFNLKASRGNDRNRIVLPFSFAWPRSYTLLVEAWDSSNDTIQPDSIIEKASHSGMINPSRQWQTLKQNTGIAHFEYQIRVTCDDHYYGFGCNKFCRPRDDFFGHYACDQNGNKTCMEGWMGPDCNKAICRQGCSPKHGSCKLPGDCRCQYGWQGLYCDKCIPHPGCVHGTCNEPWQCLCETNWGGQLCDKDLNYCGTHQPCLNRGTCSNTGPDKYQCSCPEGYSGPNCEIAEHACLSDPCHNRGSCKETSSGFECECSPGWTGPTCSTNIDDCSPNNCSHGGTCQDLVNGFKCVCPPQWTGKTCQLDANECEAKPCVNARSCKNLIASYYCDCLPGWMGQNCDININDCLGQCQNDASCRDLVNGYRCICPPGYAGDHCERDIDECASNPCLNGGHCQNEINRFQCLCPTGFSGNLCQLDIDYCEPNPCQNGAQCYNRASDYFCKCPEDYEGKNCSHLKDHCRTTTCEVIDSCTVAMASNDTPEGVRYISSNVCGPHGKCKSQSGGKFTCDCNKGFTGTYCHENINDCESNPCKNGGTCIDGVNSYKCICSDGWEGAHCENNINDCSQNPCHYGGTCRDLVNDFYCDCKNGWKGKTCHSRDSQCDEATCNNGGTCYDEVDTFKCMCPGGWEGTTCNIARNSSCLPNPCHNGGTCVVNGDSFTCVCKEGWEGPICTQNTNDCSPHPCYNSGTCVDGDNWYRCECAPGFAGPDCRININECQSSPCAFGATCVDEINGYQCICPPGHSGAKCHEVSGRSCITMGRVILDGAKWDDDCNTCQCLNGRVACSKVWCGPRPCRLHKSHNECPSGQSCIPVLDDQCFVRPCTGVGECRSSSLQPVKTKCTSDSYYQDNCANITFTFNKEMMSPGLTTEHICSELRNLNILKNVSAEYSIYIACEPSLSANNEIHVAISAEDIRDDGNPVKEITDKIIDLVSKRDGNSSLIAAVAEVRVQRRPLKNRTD

B1: anti-JAG1.b70 mouse immunoglobulin G2a (mIgG2a), WT (antibody, V domains shown)
VH: EVQLVESGGGLVQPGGSLRLSCAASGFTFSNYGIHWVRQAPGKGLEWVGWITPDGGYTDYADSVKGRFTISADTSKNTAYLQMNSLRAEDTAVYYCARAGTLFAYWGQGTLVTVSS
VL: DIQMTQSPSSLSASVGDRVTITCRASQDVSTAVAWYQQKPGKAPKLLIYSASFLYSGVPSRFSGSGSGTDFTLTISSLQPEDFATYYCQQYYTTATTFGQGTKVEIK
notes: variable heavy domain of anti-JAG1.b70; constant domains of the mouse IgG2a heavy chain, wild type; variable light domain of anti-JAG1.b70; constant domain of the murine kappa light chain; Phage-display selected antibody in mIgG2a format; A batch provided by Genentech was used in animals; WT and PGLALA variants for the ELISAs were produced in HEK293E; The constant domains of the Fab in PDB 5BO1 …
With B1, the binding result is listed as “binds”.

B2: anti-JAG1.b70 mIgG2a, PGLALA (P329G, L234A, L235A) (antibody, V domains shown)
VH: EVQLVESGGGLVQPGGSLRLSCAASGFTFSNYGIHWVRQAPGKGLEWVGWITPDGGYTDYADSVKGRFTISADTSKNTAYLQMNSLRAEDTAVYYCARAGTLFAYWGQGTLVTVSS
VL: DIQMTQSPSSLSASVGDRVTITCRASQDVSTAVAWYQQKPGKAPKLLIYSASFLYSGVPSRFSGSGSGTDFTLTISSLQPEDFATYYCQQYYTTATTFGQGTKVEIK
notes: variable heavy domain as in the heavy chain of m1; constant domains of the mouse IgG2a heavy chain with PGLALA in the CH2 domain; variable light domain as in the light chain of m1; constant domain of the murine kappa light chain; also called PGLALA-engineered anti-JAG1; effector-negative anti-JAG1; source: HEK293E, transient co-transfection, purified (anti-murine kLC CaptureSelect, SEC)
As to B2, the binding result is “binds”.
